These results are taken from paper PMC12246617, “Cryo-EM structures reveal the PP2A–B55α and Eya3 interaction that can be disrupted by a peptide inhibitor” (The Journal of Biological Chemistry, 2025).

Test [1] has as its target B55i peptide (computationally engineered inhibitory peptide of B55). The experiment in a line: fluorescence polarisation; His-B55 serially diluted in 50 mM Tris pH 8, 100 mM NaCl, 1 mM DTT, incubated with 3 nM FITC-B55i at room temperature for 10 min. On the technique in general: Fluorescence polarisation rises when a labelled molecule tumbles more slowly, as on binding a larger partner.

For test [2], the target named is T1, His-hB55 (human PP2A regulatory subunit B55α), P63151.
T1 chain: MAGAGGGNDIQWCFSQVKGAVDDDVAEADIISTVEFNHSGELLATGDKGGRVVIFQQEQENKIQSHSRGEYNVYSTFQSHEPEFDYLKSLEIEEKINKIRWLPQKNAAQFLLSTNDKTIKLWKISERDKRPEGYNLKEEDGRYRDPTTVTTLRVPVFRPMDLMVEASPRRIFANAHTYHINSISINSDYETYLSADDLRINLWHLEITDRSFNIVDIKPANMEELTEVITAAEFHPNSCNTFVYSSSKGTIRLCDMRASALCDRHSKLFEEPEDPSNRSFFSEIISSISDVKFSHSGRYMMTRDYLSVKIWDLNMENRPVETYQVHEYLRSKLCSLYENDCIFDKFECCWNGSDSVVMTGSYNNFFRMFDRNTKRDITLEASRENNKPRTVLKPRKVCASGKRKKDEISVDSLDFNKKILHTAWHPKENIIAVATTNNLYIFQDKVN
The experiment in a line: MST. The conditions noted are these: chain shown with the change;.

Substitutions are numbered along the chain they refer to. Numbers in names are those of the source.

B1: His-hB55 (human PP2A regulatory subunit B55α) (natural protein)
chain: T1 chain
A word on the Kd: it is the equilibrium constant for the complex coming apart. In test [1], B1 had a Kd of 0.0673 µM.

B2: mouse Eya3 (mEya3), wild type, P97480 Y77A (protein)
chain: MEEEQDLPEQPVKKAKMQEPREQTLSQVNNPDASDEKPETSSLASNLSMSEEIMTCTDYIPRSSNDYTSQMYSAKPAAHILSVPVSETTYPGQTQYQTLQQSQPYAVYPQATQTYGLPPFASSTNASLIPTSSAIANIPAAAVASISNQDYPTYTILGQNQYQACYPSSSFGVTGQTNSDAETTTLAATTYQTEKPSAMVPAPATQRLPSDSSASPPLSQTTPNKDADDQARKNMTVKNRGKRKADASSSQDSELERVFLWDLDETIIIFHSLLTGSYAQKYGKDPTVVIGSGLTMEEMIFEVADTHLFFNDLEECDQVHVEDVASDDNGQDLSNYSFSTDGFSGSGGSGSHGSSVGVQGGVDWMRKLAFRYRKVREIYDKHKSNVGGLLSPQRKEALQRLRAEIEVLTDSWLGTALKSLLLIQSRKNCANVLITTTQLVPALAKVLLYGLGEIFPIENIYSATKIGKESCFERIVSRFGKKVTYVVIGDGRDEEIAAKQHNMPFWRITNHGDLVSLHQALELDFL
On to B2, for which the Kd in test [2] (parent: 1.04 µM) stood at 4.87 µM.

B3: mouse Eya3 (mEya3), wild type, P97480 H79A (protein)
chain: B2 chain with A77Y, H79A
Consider B3, for which the equilibrium dissociation constant (Kd) in test [2] (parent: 1.04) amounted to 9.16 µM.

B4: mouse Eya3 (mEya3), wild type, P97480 K75A (protein)
chain: B2 chain with K75A, A77Y
On to B4, for which the Kd in test [2] (parent: 1.04 µM) amounted to 4.24 µM.
